Measurements as given in article PMC3021122.

Target: Shigella flexneri Spa15 (residues 1-133), N-terminal His tag, unlabelled (Shigella flexneri) (UniProt P35530)
Test: multi-angle laser light scattering; co-purified Spa15:IpgB1 complex; data not shown

Shigella flexneri IpgB1 (residues 1-208) (natural protein)
stoichiometry N (Spa15 per IpgB1): 2
